The values below come from US20180339041A1 (Kyowa Kirin, published 2018).

In experiment [1] the target is T1, human protein S (derived from human serum; Enzyme Research Laboratories) (human, UniProt P07225 42-676).
T1 construct: Homologue of Gas6 used as specificity control
T1 sequence (looked up): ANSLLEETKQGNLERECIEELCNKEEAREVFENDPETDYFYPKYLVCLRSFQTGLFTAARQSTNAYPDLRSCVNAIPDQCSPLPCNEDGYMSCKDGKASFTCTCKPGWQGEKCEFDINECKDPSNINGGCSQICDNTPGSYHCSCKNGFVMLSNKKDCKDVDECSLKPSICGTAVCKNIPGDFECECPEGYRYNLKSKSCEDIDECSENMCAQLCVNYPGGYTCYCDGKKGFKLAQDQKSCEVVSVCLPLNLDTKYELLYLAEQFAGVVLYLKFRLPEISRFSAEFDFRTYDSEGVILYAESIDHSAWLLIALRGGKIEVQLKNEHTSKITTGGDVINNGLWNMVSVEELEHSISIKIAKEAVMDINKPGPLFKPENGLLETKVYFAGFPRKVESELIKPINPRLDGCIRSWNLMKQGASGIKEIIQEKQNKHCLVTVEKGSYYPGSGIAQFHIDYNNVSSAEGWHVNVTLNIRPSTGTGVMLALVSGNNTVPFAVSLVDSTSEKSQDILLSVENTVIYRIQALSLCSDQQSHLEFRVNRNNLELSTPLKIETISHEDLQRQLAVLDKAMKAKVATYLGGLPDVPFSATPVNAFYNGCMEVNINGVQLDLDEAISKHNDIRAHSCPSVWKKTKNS
Put plainly: ELISA: human protein S coated directly on the plate (2 µg/mL); biotinylated test antibody; streptavidin-HRP/TMB (Example 6, method of Example 5(5)) [F]. How it is done: First, a 2 μg/mL solution of the antigen (prepared from each antigen with PBS (manufactured by Nacalai Tesque, Inc.)) was dispensed at 50 μL/well to a 96-well plate for ELISA (manufactured by Nalge Nunc International), and the plate was left standing overnight at 4° C. for adsorption. The plate was washed five times with Tween 20-PBS. Then, 1% BSA-PBS (manufactured by Nacalai Tesque, Inc.) was added thereto at 300 μL/well, and the plate was left standing at room temperature for 1 hour for blocking and washed five times with Tween 20-PBS (manufactured by Wako Pure Chemical Industries Ltd.). Next, the hybridoma culture supernatant was dispensed thereto as a test substance at 50 μL/well, and the plate was left standing at room temperature for 1 hour and then washed five times with Tween 20-PBS. Next, polyclonal goat anti-mouse immunoglobulins/HRP (Dako Denmark A/S, P0447) diluted 2000-fold with 1% BSA-PBS was dispensed thereto at 50 μL/well, and the plate was left standing at room temperature for 1 hour. The plate was washed five times with Tween 20-PBS, and TMB (manufactured by Sigma-Aldrich Co. LLC) was added thereto at 50 μL/well and reacted. At an appropriate point in time, the reaction was terminated by the addition of 1 N hydrochloric acid (manufactured by Wako Pure Chemical Industries Ltd.) at 50 μL/well. The absorbance at a sample wavelength of 450 nm and a reference wavelength of 570 nm (450 nm-570 nm) was measured using a plate reader (Spectra Max, manufactured by Molecular Devices, LLC).
The binding activity of the obtained antibodies against human protein S was measured in the same way as in Example 5(5). […] The secondary detection reagent used was Streptavidin HRP Conjugate (manufactured by R&D Systems, Inc.) diluted 200-fold with 1% BSA-PBS.

Experiment [2] concerns the target T2, C-terminally FLAG-tagged rat Gas6 recombinant protein (rGas6-F) (rat, UniProt Q63772 28-674, limits assumed, gamma-carboxylated glutamic acid residues in the Gla domain (producer cells co-express rat VKOR and human GGCX); positions not given).
T2 construct: also called rat Gas6-F
T2 sequence (looked up): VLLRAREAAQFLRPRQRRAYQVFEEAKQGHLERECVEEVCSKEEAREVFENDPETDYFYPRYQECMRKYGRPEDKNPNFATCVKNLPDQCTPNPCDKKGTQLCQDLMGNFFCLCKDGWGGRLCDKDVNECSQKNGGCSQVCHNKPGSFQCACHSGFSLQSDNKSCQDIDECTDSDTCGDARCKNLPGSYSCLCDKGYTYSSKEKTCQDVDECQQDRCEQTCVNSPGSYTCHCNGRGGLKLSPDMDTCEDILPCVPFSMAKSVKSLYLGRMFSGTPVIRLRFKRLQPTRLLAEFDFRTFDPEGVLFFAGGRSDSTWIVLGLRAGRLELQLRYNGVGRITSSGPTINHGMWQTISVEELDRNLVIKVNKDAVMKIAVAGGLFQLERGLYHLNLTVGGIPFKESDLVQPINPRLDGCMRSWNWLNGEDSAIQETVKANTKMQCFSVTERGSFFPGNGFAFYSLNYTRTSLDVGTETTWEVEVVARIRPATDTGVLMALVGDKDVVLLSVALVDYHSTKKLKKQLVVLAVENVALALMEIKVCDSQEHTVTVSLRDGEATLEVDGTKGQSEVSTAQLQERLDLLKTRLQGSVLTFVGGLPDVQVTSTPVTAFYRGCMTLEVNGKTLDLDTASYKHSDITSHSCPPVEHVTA
Put plainly: ELISA: rGas6-F (1 µg/mL) captured on coated anti-FLAG M2 antibody; biotinylated test antibody; streptavidin-HRP/TMB; absorbance 450-570 nm, N=2 (Example 6) [C]. Here is the method:
First, 2 μg/mL anti-FLAG antibody [Monoclonal ANTI-FLAG M2 antibody produced in mouse (manufactured by Sigma-Aldrich Co. LLC) diluted with PBS (manufactured by Nacalai Tesque, Inc.)] was dispensed at 50 μL/well to a 96-well plate for ELISA (manufactured by Nalge Nunc International), and the plate was left standing overnight at 4° C. for adsorption. After removal of the immobilization solution, 1% BSA-PBS (manufactured by Nacalai Tesque, Inc.) was added thereto at 300 μL/well, and the plate was left standing at room temperature for 1 hour for blocking and washed five times with Tween 20-PBS (manufactured by Wako Pure Chemical Industries Ltd.).
Each antibody solution was dispensed thereto at 50 μL/well, and the plate was left standing at room temperature for 1 hour. This plate was washed five times with Tween 20-PBS. Then, Streptavidin HRP Conjugate (manufactured by R&D Systems, Inc.) diluted 200-fold with 1% BSA-PBS was dispensed thereto at 50 μL/well, and the plate was left standing at room temperature for 1 hour. This plate was washed five times with Tween 20-PBS, and TMB (manufactured by Sigma-Aldrich Co. LLC) was added thereto at 50 μL/well and reacted. […] The absorbance at a sample wavelength of 450 nm and a reference wavelength of 570 nm (450 nm-570 nm) was measured using a plate reader.

B1: anti-human Gas6 mouse monoclonal antibody KM5320 (KM5320-mKG1 antibody) (antibody, V domains shown)
VH: QIQLVQSGPELKKPGETVKISCKASGYTFTNYGMNWVKQAPGKGLKWMGWINTETGEPTYSDDFKGRFAFSLETSATTAYLQINNLRNEDMATYFCAREDGYYGTLDYWGQGTSVTVSS
VL: SIVMTQTPKFLLVSAGDRVTITCKASQSVSNDVAWYQQKPGQSPKVLIYYASNRYTGVPDRFTGSGYGTDFTFTISTVQAEDLAVYFCQQDYSSPWTFGGGTKLEIK
notes: Hybridoma-derived mouse IgG1, kappa; also called KM5320 antibody
In the case of B1, in experiment [1], the binding result was “no binding (tested: 5 µg/mL)”. Also, the concentration for a half-maximal effect (EC50 (read off the curve)) in experiment [2] is roughly 5 ng/mL.

B2: anti-human Gas6 mouse monoclonal antibody KM5321 (KM5321-mKG1 antibody) (antibody, V domains shown)
VH: QIQLVQSGPELKKPGETVKISCRASGYTFTNYGMNWVKQAPGKGLKWMGWINTNTGEPTYTEEFKGRFAFSLETSATTAYLQINDLKNEDTATYFCARDEGWFVYWGQGTLITVSA
VL: ETTVTQSPASLSVATGEKVTIRCITSTDIDDDMNWYQQKPGEPPKLLISEGNTLRPGVPSRFSSSGYGTDFVFTIENTLSEDVADYYCLQTDSVPLTFGAGTKLELK
notes: Hybridoma-derived mouse IgG1, kappa; also called KM5321 antibody
For B2, the binding result in experiment [1] is recorded as “no binding (tested: 5 µg/mL)”. Moreover, in experiment [2], the “EC50 (read off the curve)” value is roughly 4 ng/mL.
